# In US20190241648A1 (STATEN BIOTECHNOLOGY B V, published 2019):
# Ends that are not written are not given here.
# T1: wild-type ApoC3 peptide ARGWVTDGFSSLK (SEQ ID NO: 45) (human, not fully specified (bridges); also: cyclic constrained, ring type and positions not given here)
# T1 construct: 13 aa cyclic constrained peptide
# T1 peptide: ARGWVTDGFSSLK
# T2: ApoC3 peptide … V43A (human, not fully specified; cyclic constrained)
# T2 peptide: ARGWATDGFSSLK
# T3: ApoC3 peptide … K51C (human, thioether (positions not given here); also: cyclic constrained)
# T3 peptide: ARGWVTDGFSSLC
# T4: ApoC3 peptide … W42D (human, not fully specified (bridges); also: cyclic constrained)
# T4 peptide: ARGDVTDGFSSLK
# T5: ApoC3 peptide … T44D (human, not fully specified (bridges); also: cyclic constrained)
# T5 peptide: ARGWVDDGFSSLK
# T6: ApoC3 peptide … L50H (human, not fully specified; cyclic constrained)
# T6 peptide: ARGWVTDGFSSHK
# T7: ApoC3 peptide … K51I (human, not fully specified; cyclic constrained)
# T7 peptide: ARGWVTDGFSSLI
# T8: ApoC3 peptide … W42K (human, not fully specified (bridges); also: cyclic constrained)
# T8 peptide: ARGKVTDGFSSLK
# T9: ApoC3 peptide … F47L (human, not fully specified (bridges); also: cyclic constrained)
# T9 peptide: ARGWVTDGLSSLK
# T10: ApoC3 peptide … V43M (human, not fully specified; cyclic constrained)
# T10 peptide: ARGWMTDGFSSLK
# T11: ApoC3 peptide … K51M (human, not fully specified; cyclic constrained)
# T11 peptide: ARGWVTDGFSSLM
# T12: ApoC3 peptide … F47N (human, not fully specified (bridges); also: cyclic constrained)
# T12 peptide: ARGWVTDGNSSLK
# T13: ApoC3 peptide … K51N (human, not fully specified; cyclic constrained)
# T13 peptide: ARGWVTDGFSSLN
# T14: ApoC3 peptide … T44P (human, not fully specified (bridges); also: cyclic constrained)
# T14 peptide: ARGWVPDGFSSLK
# T15: ApoC3 peptide … F47P (human, not fully specified (bridges); also: cyclic constrained)
# T15 peptide: ARGWVTDGPSSLK
# T16: ApoC3 peptide … S49P (human, cyclic constrained)
# T16 peptide: ARGWVTDGFSPLK
# T17: ApoC3 peptide … T44R (human, not fully specified (bridges); also: cyclic constrained)
# T17 peptide: ARGWVRDGFSSLK
# T18: ApoC3 peptide … S49R (human, not fully specified (bridges); also: cyclic constrained)
# T18 peptide: ARGWVTDGFSRLK
# T19: ApoC3 peptide … V43S (human, not fully specified (bridges); also: cyclic constrained)
# T19 peptide: ARGWSTDGFSSLK
# T20: ApoC3 peptide … G46S (human, thioether (positions not given here); also: cyclic constrained)
# T20 peptide: ARGWVTDSFSSLK
# T21: ApoC3 peptide … K51S (human, not fully specified; cyclic constrained)
# T21 peptide: ARGWVTDGFSSLS
# T22: ApoC3 peptide … W42T (human, not fully specified (bridges); also: cyclic constrained)
# T22 peptide: ARGTVTDGFSSLK
# T23: ApoC3 peptide … A39W (human, not fully specified (bridges); also: cyclic constrained)
# T23 peptide: WRGWVTDGFSSLK
# T24: ApoC3 peptide … F47W (human, also: cyclic constrained)
# T24 peptide: ARGWVTDGWSSLK
# T25: ApoC3 peptide … A39Y (human, not fully specified (bridges); also: cyclic constrained)
# T25 peptide: YRGWVTDGFSSLK
# T26: ApoC3 peptide … G46Y (human, thioether (positions not given here); also: cyclic constrained)
# T26 peptide: ARGWVTDYFSSLK
# T27: ApoC3 peptide … S49Y (human, not fully specified (bridges); also: cyclic constrained)
# T27 peptide: ARGWVTDGFSYLK
# T28: ApoC3 peptide … K51Y (human, not fully specified; cyclic constrained)
# T28 peptide: ARGWVTDGFSSLY
# B1: anti-ApoC3 antibody 14C7 (antibody, V domains shown)
# VH: QVQVQESGPGLVKPSQTLSLTCTVSGGSITTNSYYWSWIRQPPGKGLEWMGAIDYSGDTYYSPSLKSRTSISRDTSKNQFTLQLTSVTPEDTAVYYCVSRIPTGEYWGQGTQVTVSS
# VL: QTVVTQEPSLSVSPGGTVTLTCGLNSGSVTSSNYPDWYQQTPGQAPRLLIYNTNSRHSGVPSRFSGSISGNKAALTITGAQPEDEADYYCALYMGSDSVVFGGGTHLTVL
# notes: it was detected with goat anti-human IgG (Fc); also called mAb 14C7; llama antibody 14C7
# Legend:
# Assay in all cases: peptide microarray
# [1] = target: T1, wild-type ApoC3 peptide ARGWVTDGFSSLK …
# Outline: (§1)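 Peptide microarrays of ApoC3-derived peptides incubated with antibody samples, then stained with goat anti-human IgG (Fc) DyLight680 (1:5000) and anti-HA DyLight800 (1:2000) control. Read-out by fluorescence scanning at intensities 7/7 (red/green); a secondary-only pre-stain checked background, HA frame peptides served as quality control.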
# ApoC3 peptide … V43A = target: T2, ApoC3 peptide … V43A
# Outline: as §1
# ApoC3 peptide … K51C = target: T3, ApoC3 peptide … K51C
# Outline: as §1
# ApoC3 peptide … W42D = target: T4, ApoC3 peptide … W42D
# Outline: as §1
# ApoC3 peptide … T44D = target: T5, ApoC3 peptide … T44D
# Outline: as §1
# ApoC3 peptide … S48H = ApoC3 peptide … S48H (human, cyclic constrained)
# Outline: as §1
# ApoC3 peptide … L50H = target: T6, ApoC3 peptide … L50H
# Outline: as §1
# ApoC3 peptide … K51I = target: T7, ApoC3 peptide … K51I
# Outline: as §1
# ApoC3 peptide … W42K = target: T8, ApoC3 peptide … W42K
# Outline: as §1
# ApoC3 peptide … F47L = target: T9, ApoC3 peptide … F47L
# Outline: as §1
# ApoC3 peptide … V43M = target: T10, ApoC3 peptide … V43M
# Outline: as §1
# ApoC3 peptide … K51M = target: T11, ApoC3 peptide … K51M
# Outline: as §1
# ApoC3 peptide … F47N = target: T12, ApoC3 peptide … F47N
# Outline: as §1
# ApoC3 peptide … K51N = target: T13, ApoC3 peptide … K51N
# Outline: as §1
# ApoC3 peptide … T44P = target: T14, ApoC3 peptide … T44P
# Outline: as §1
# ApoC3 peptide … F47P = target: T15, ApoC3 peptide … F47P
# Outline: as §1
# ApoC3 peptide … S49P = target: T16, ApoC3 peptide … S49P
# Outline: as §1
# ApoC3 peptide … T44R = target: T17, ApoC3 peptide … T44R
# Outline: as §1
# ApoC3 peptide … S49R = target: T18, ApoC3 peptide … S49R
# Outline: as §1
# ApoC3 peptide … V43S = target: T19, ApoC3 peptide … V43S
# Outline: as §1
# ApoC3 peptide … G46S = target: T20, ApoC3 peptide … G46S
# Outline: as §1
# ApoC3 peptide … K51S = target: T21, ApoC3 peptide … K51S
# Outline: as §1
# ApoC3 peptide … W42T = target: T22, ApoC3 peptide … W42T
# Outline: as §1
# ApoC3 peptide … S48V = ApoC3 peptide … S48V (human, cyclic constrained)
# Outline: as §1
# ApoC3 peptide … A39W = target: T23, ApoC3 peptide … A39W
# Outline: as §1
# ApoC3 peptide … F47W = target: T24, ApoC3 peptide … F47W
# Outline: as §1
# ApoC3 peptide … A39Y = target: T25, ApoC3 peptide … A39Y
# Outline: as §1
# ApoC3 peptide … G46Y = target: T26, ApoC3 peptide … G46Y
# Outline: as §1
# ApoC3 peptide … S49Y = target: T27, ApoC3 peptide … S49Y
# Outline: as §1
# ApoC3 peptide … K51Y = target: T28, ApoC3 peptide … K51Y
# Outline: as §1
binder,measurement,setting,value
B1,% of binding to wild-type peptide,[1],100%
same,% of binding to wild-type peptide,ApoC3 peptide … V43A,26.9%
same,% of binding to wild-type peptide,ApoC3 peptide … K51C,0%
same,% of binding to wild-type peptide,ApoC3 peptide … W42D,108%
same,% of binding to wild-type peptide,ApoC3 peptide … T44D,0%
same,% of binding to wild-type peptide,ApoC3 peptide … S48H,11.5%
same,% of binding to wild-type peptide,ApoC3 peptide … L50H,0%
same,% of binding to wild-type peptide,ApoC3 peptide … K51I,0.86%
same,% of binding to wild-type peptide,ApoC3 peptide … W42K,136%
same,% of binding to wild-type peptide,ApoC3 peptide … F47L,4.56%
same,% of binding to wild-type peptide,ApoC3 peptide … V43M,20.9%
same,% of binding to wild-type peptide,ApoC3 peptide … K51M,11.1%
same,% of binding to wild-type peptide,ApoC3 peptide … F47N,0.06%
same,% of binding to wild-type peptide,ApoC3 peptide … K51N,2.6%
same,% of binding to wild-type peptide,ApoC3 peptide … T44P,0%
same,% of binding to wild-type peptide,ApoC3 peptide … F47P,0%
same,% of binding to wild-type peptide,ApoC3 peptide … S49P,0%
same,% of binding to wild-type peptide,ApoC3 peptide … T44R,0%
same,% of binding to wild-type peptide,ApoC3 peptide … S49R,0.74%
same,% of binding to wild-type peptide,ApoC3 peptide … V43S,1.54%
same,% of binding to wild-type peptide,ApoC3 peptide … G46S,0%
same,% of binding to wild-type peptide,ApoC3 peptide … K51S,27.5%
same,% of binding to wild-type peptide,ApoC3 peptide … W42T,186%
same,% of binding to wild-type peptide,ApoC3 peptide … S48V,45.3%
same,% of binding to wild-type peptide,ApoC3 peptide … A39W,59.4%
same,% of binding to wild-type peptide,ApoC3 peptide … F47W,1.57%
same,% of binding to wild-type peptide,ApoC3 peptide … A39Y,40.5%
same,% of binding to wild-type peptide,ApoC3 peptide … G46Y,0%
same,% of binding to wild-type peptide,ApoC3 peptide … S49Y,0%
same,% of binding to wild-type peptide,ApoC3 peptide … K51Y,0%
